# From the supplement of paper PMC10567573
# B1: TRAF3IP2 (parent)
# chain: KQGSMNFRFIPVLFPNAKKEHVPT
# B2: SOAT1 (parent)
# chain: PSNGRIDIKQLIAKKIKLTAEAEE
# Variants of: B1
# Experiment: protein stability index of a GFP-peptide fusion (GPS, HEK-293T) (PSI 1-6); higher = more stable
# Details: c terminus: a fixed tail appended
# 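Note: lentivirally expressed fusions sorted by FACS into six bins by GFP to DsRed ratio, PSI derived from sequencing read proportions per bin multiplied by bin number.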
row,Variant,protein stability index
1,KQGSGNFRFIPVLFPNAKKEHVPT,2.43
2,KQGSTNFRFIPVLFPNAKKEHVPT,2.5
3,KQGSSNFRFIPVLFPNAKKEHVPT,2.04
4,KQGSRNFRFIPVLFPNAKKEHVPT,2.2
5,KQGSYNFRFIPVLFPNAKKEHVPT,1.87
6,KQGSNNFRFIPVLFPNAKKEHVPT,2.44
7,KQGSFNFRFIPVLFPNAKKEHVPT,1.52
8,KQGSCNFRFIPVLFPNAKKEHVPT,1.98
9,KQGSENFRFIPVLFPNAKKEHVPT,2.88
10,KQGSWNFRFIPVLFPNAKKEHVPT,1.8
11,KQGSKNFRFIPVLFPNAKKEHVPT,2.8
12,KQGSLNFRFIPVLFPNAKKEHVPT,1.97
13,KQGSVNFRFIPVLFPNAKKEHVPT,1.91
14,KQGSPNFRFIPVLFPNAKKEHVPT,2.1
15,KQGSANFRFIPVLFPNAKKEHVPT,2.21
16,KQGSINFRFIPVLFPNAKKEHVPT,2.01
17,KQGSHNFRFIPVLFPNAKKEHVPT,2.15
18,KQGSDNFRFIPVLFPNAKKEHVPT,3.35
19,KQGSQNFRFIPVLFPNAKKEHVPT,2.65
20,KQGSMNFCFIPVLFPNAKKEHVPT,2.52
21,KQGSMNFFFIPVLFPNAKKEHVPT,1.61
22,KQGSMNFDFIPVLFPNAKKEHVPT,3.3
23,KQGSMNFEFIPVLFPNAKKEHVPT,3.28
24,KQGSMNFMFIPVLFPNAKKEHVPT,1.88

row,Variant,protein stability index
1,KQGSMNFHFIPVLFPNAKKEHVPT,2.41
2,KQGSMNFGFIPVLFPNAKKEHVPT,1.9
3,KQGSMNFLFIPVLFPNAKKEHVPT,2.22
4,KQGSMNFIFIPVLFPNAKKEHVPT,2.88
5,KQGSMNFAFIPVLFPNAKKEHVPT,1.78
6,KQGSMNFKFIPVLFPNAKKEHVPT,2.61
7,RQGSMNFRFIPVLFPNAKKEHVPT,2.31
8,IQGSMNFRFIPVLFPNAKKEHVPT,1.63
9,TQGSMNFRFIPVLFPNAKKEHVPT,2.32
10,GQGSMNFRFIPVLFPNAKKEHVPT,2.19
11,AQGSMNFRFIPVLFPNAKKEHVPT,2.02
12,DQGSMNFRFIPVLFPNAKKEHVPT,2.02
13,LQGSMNFRFIPVLFPNAKKEHVPT,1.51
14,EQGSMNFRFIPVLFPNAKKEHVPT,2.7
15,WQGSMNFRFIPVLFPNAKKEHVPT,2.08
16,HQGSMNFRFIPVLFPNAKKEHVPT,2.17
17,FQGSMNFRFIPVLFPNAKKEHVPT,2.23
18,YQGSMNFRFIPVLFPNAKKEHVPT,2.57
19,SQGSMNFRFIPVLFPNAKKEHVPT,2.16
20,MQGSMNFRFIPVLFPNAKKEHVPT,1.94
21,CQGSMNFRFIPVLFPNAKKEHVPT,2.01
22,PQGSMNFRFIPVLFPNAKKEHVPT,1.88
23,VQGSMNFRFIPVLFPNAKKEHVPT,1.95
24,QQGSMNFRFIPVLFPNAKKEHVPT,1.88

row,Variant,protein stability index
1,NQGSMNFRFIPVLFPNAKKEHVPT,1.94
2,KQGSMIFRFIPVLFPNAKKEHVPT,2.15
3,KQGSMFFRFIPVLFPNAKKEHVPT,1.74
4,KQGSMTFRFIPVLFPNAKKEHVPT,1.96
5,KQGSMRFRFIPVLFPNAKKEHVPT,1.66
6,KQGSMYFRFIPVLFPNAKKEHVPT,2.14
7,KQGSMDFRFIPVLFPNAKKEHVPT,1.89
8,KQGSMEFRFIPVLFPNAKKEHVPT,2.1
9,KQGSMLFRFIPVLFPNAKKEHVPT,1.81
10,KQGSMQFRFIPVLFPNAKKEHVPT,1.81
11,KQGSMCFRFIPVLFPNAKKEHVPT,1.67
12,KQGSMVFRFIPVLFPNAKKEHVPT,1.93
13,KQGSMSFRFIPVLFPNAKKEHVPT,1.96
14,KQGSMWFRFIPVLFPNAKKEHVPT,1.83
15,KQGSMPFRFIPVLFPNAKKEHVPT,2.44
16,KQGSMGFRFIPVLFPNAKKEHVPT,1.56
17,KQGSMAFRFIPVLFPNAKKEHVPT,1.76
18,KQGSMHFRFIPVLFPNAKKEHVPT,1.72
19,KQGSMMFRFIPVLFPNAKKEHVPT,1.58
20,KQGSMKFRFIPVLFPNAKKEHVPT,1.6
21,KQGHMNFRFIPVLFPNAKKEHVPT,1.68
22,KQGNMNFRFIPVLFPNAKKEHVPT,2.26
23,KQGLMNFRFIPVLFPNAKKEHVPT,1.2
24,KQGVMNFRFIPVLFPNAKKEHVPT,1.87

row,Variant,protein stability index
1,KQGRMNFRFIPVLFPNAKKEHVPT,1.48
2,KQGWMNFRFIPVLFPNAKKEHVPT,1.41
3,KQGKMNFRFIPVLFPNAKKEHVPT,1.74
4,KQGFMNFRFIPVLFPNAKKEHVPT,1.5
5,KQGTMNFRFIPVLFPNAKKEHVPT,2
6,KQGDMNFRFIPVLFPNAKKEHVPT,2.4
7,KQGYMNFRFIPVLFPNAKKEHVPT,2.14
8,KQGCMNFRFIPVLFPNAKKEHVPT,1.73
9,KQGMMNFRFIPVLFPNAKKEHVPT,1.81
10,KQGQMNFRFIPVLFPNAKKEHVPT,2.59
11,KQGEMNFRFIPVLFPNAKKEHVPT,2.57
12,KQGPMNFRFIPVLFPNAKKEHVPT,2.98
13,KQGGMNFRFIPVLFPNAKKEHVPT,1.53
14,KQGAMNFRFIPVLFPNAKKEHVPT,2.68
15,KQRSMNFRFIPVLFPNAKKEHVPT,1.83
16,KQFSMNFRFIPVLFPNAKKEHVPT,3.01
17,KQMSMNFRFIPVLFPNAKKEHVPT,1.75
18,KQESMNFRFIPVLFPNAKKEHVPT,2.09
19,KQPSMNFRFIPVLFPNAKKEHVPT,1.74
20,KQCSMNFRFIPVLFPNAKKEHVPT,2.06
21,KQWSMNFRFIPVLFPNAKKEHVPT,2.25
22,KQDSMNFRFIPVLFPNAKKEHVPT,2.02
23,KQVSMNFRFIPVLFPNAKKEHVPT,2.06
24,KQASMNFRFIPVLFPNAKKEHVPT,1.9

row,Variant,protein stability index
1,KQNSMNFRFIPVLFPNAKKEHVPT,2.05
2,KQYSMNFRFIPVLFPNAKKEHVPT,1.33
3,KQISMNFRFIPVLFPNAKKEHVPT,1.77
4,KQLSMNFRFIPVLFPNAKKEHVPT,1.67
5,KQKSMNFRFIPVLFPNAKKEHVPT,1.6
6,KQQSMNFRFIPVLFPNAKKEHVPT,1.85
7,KQHSMNFRFIPVLFPNAKKEHVPT,2.01
8,KQTSMNFRFIPVLFPNAKKEHVPT,2.44
9,KQSSMNFRFIPVLFPNAKKEHVPT,1.82
10,KQGSMNRRFIPVLFPNAKKEHVPT,2.69
11,KQGSMNCRFIPVLFPNAKKEHVPT,2.38
12,KQGSMNNRFIPVLFPNAKKEHVPT,2.92
13,KQGSMNTRFIPVLFPNAKKEHVPT,2.73
14,KQGSMNHRFIPVLFPNAKKEHVPT,2.87
15,KQGSMNERFIPVLFPNAKKEHVPT,3.67
16,KQGSMNARFIPVLFPNAKKEHVPT,2.95
17,KQGSMNVRFIPVLFPNAKKEHVPT,2.13
18,KQGSMNYRFIPVLFPNAKKEHVPT,2.59
19,KQGSMNQRFIPVLFPNAKKEHVPT,3.19
20,KQGSMNPRFIPVLFPNAKKEHVPT,3.31
21,KQGSMNWRFIPVLFPNAKKEHVPT,2.23
22,KQGSMNKRFIPVLFPNAKKEHVPT,3.06
23,KQGSMNDRFIPVLFPNAKKEHVPT,2.91
24,KQGSMNGRFIPVLFPNAKKEHVPT,3.01

row,Variant,protein stability index
1,KQGSMNMRFIPVLFPNAKKEHVPT,2.32
2,KQGSMNLRFIPVLFPNAKKEHVPT,1.91
3,KQGSMNSRFIPVLFPNAKKEHVPT,3.12
4,KQGSMNIRFIPVLFPNAKKEHVPT,2.12
5,KGGSMNFRFIPVLFPNAKKEHVPT,2.66
6,KAGSMNFRFIPVLFPNAKKEHVPT,2.47
7,KMGSMNFRFIPVLFPNAKKEHVPT,1.48
8,KHGSMNFRFIPVLFPNAKKEHVPT,1.63
9,KCGSMNFRFIPVLFPNAKKEHVPT,1.8
10,KDGSMNFRFIPVLFPNAKKEHVPT,1.8
11,KYGSMNFRFIPVLFPNAKKEHVPT,2.08
12,KNGSMNFRFIPVLFPNAKKEHVPT,1.91
13,KKGSMNFRFIPVLFPNAKKEHVPT,1.91
14,KIGSMNFRFIPVLFPNAKKEHVPT,2.82
15,KSGSMNFRFIPVLFPNAKKEHVPT,1.82
16,KPGSMNFRFIPVLFPNAKKEHVPT,1.93
17,KLGSMNFRFIPVLFPNAKKEHVPT,2.23
18,KEGSMNFRFIPVLFPNAKKEHVPT,2.13
19,KRGSMNFRFIPVLFPNAKKEHVPT,1.47
20,KTGSMNFRFIPVLFPNAKKEHVPT,1.84
21,KWGSMNFRFIPVLFPNAKKEHVPT,2.27
22,KVGSMNFRFIPVLFPNAKKEHVPT,1.85
23,KFGSMNFRFIPVLFPNAKKEHVPT,1.87

# Variants of: B2
# Experiment: as above
# Details: c terminus: a fixed tail appended
row,Variant,protein stability index
1,PSNGRIDIKQLIAKKIKLTAEAAE,2.66
2,PSNGRIDIKQLIAKKIKLTAEACE,2.33
3,PSNGRIDIKQLIAKKIKLTAEATE,3.13
4,PSNGRIDIKQLIAKKIKLTAEAVE,2.3
5,PSNGRIDIKQLIAKKIKLTAEAYE,2.22
6,PSNGRIDIKQLIAKKIKLTAEAGE,2.98
7,PSNGRIDIKQLIAKKIKLTAEAKE,3.15
8,PSNGRIDIKQLIAKKIKLTAEADE,3.3
9,PSNGRIDIKQLIAKKIKLTAEASE,2.51
10,PSNGRIDIKQLIAKKIKLTAEAQE,2.35
11,PSNGRIDIKQLIAKKIKLTAEAWE,2.31
12,PSNGRIDIKQLIAKKIKLTAEAHE,2.67
13,PSNGRIDIKQLIAKKIKLTAEARE,2.74
14,PSNGRIDIKQLIAKKIKLTAEAIE,2.69
15,PSNGRIDIKQLIAKKIKLTAEAPE,2.88
16,PSNGRIDIKQLIAKKIKLTAEAME,2.06
17,PSNGRIDIKQLIAKKIKLTAEALE,2.12
18,PSNGRIDIKQLIAKKIKLTAEAFE,1.75
19,PSNGRIDIKQLIAKKIKLTAEANE,2.93
20,PSNGRIDIKQLIAKKIKLTAEAEK,2.98
21,PSNGRIDIKQLIAKKIKLTAEAES,2.73
22,PSNGRIDIKQLIAKKIKLTAEAEM,2.27
23,PSNGRIDIKQLIAKKIKLTAEAEA,2.78

row,Variant,protein stability index
1,PSNGRIDIKQLIAKKIKLTAEAEG,2.7
2,PSNGRIDIKQLIAKKIKLTAEAEN,3.07
3,PSNGRIDIKQLIAKKIKLTAEAEP,3.24
4,PSNGRIDIKQLIAKKIKLTAEAET,3.44
5,PSNGRIDIKQLIAKKIKLTAEAEY,2.68
6,PSNGRIDIKQLIAKKIKLTAEAED,3.39
7,PSNGRIDIKQLIAKKIKLTAEAEL,3.11
8,PSNGRIDIKQLIAKKIKLTAEAEH,2.94
9,PSNGRIDIKQLIAKKIKLTAEAEC,3.19
10,PSNGRIDIKQLIAKKIKLTAEAEV,2.48
11,PSNGRIDIKQLIAKKIKLTAEAEQ,2.95
12,PSNGRIDIKQLIAKKIKLTAEAER,2.79
13,PSNGRIDIKQLIAKKIKLTAEAEW,2.44
14,PSNGRIDIKQLIAKKIKLTAEAEI,2.27
15,PSNGRIDIKQLIAKKIKLTAEAEF,2.22
16,PSNGRIDIKQLIAKKIKLTAESEE,3.26
17,PSNGRIDIKQLIAKKIKLTAEWEE,2.48
18,PSNGRIDIKQLIAKKIKLTAEQEE,3.72
19,PSNGRIDIKQLIAKKIKLTAEREE,2.79
20,PSNGRIDIKQLIAKKIKLTAEYEE,2.91
21,PSNGRIDIKQLIAKKIKLTAEVEE,2.94
22,PSNGRIDIKQLIAKKIKLTAETEE,2.82
